This series deals with the molecule itself. The series can be described thus: atomic force microscopy.

As a reminder, the Kd is the free concentration of one partner at which half of the binding sites on the other are occupied at equilibrium, for simple one-to-one binding. A lower Kd goes with higher affinity.

B1: B. stearothermophilus tryptophanyl-tRNA synthetase (TrpRS) (enzyme, UniProt P00953 1-328, looked up)
chain: MKTIFSGIQPSGVITIGNYIGALRQFVELQHEYNCYFCIVDQHAITVWQDPHELRQNIRRLAAKYLAVGIDPTQATLFIQSEVPAHAQAAWMLQCIVYIGELERMTQFKEKSAGKEAVSAGLLTYPPLMAADILLYNTDIVPVGEDQKQHIELTRDLAERFNKRYGELFTIPEARIPKVGARIMSLVDPTKKMSKSDPNPKAYITLLDDAKTIEKKIKSAVTDSEGTIRYDKEAKPGISNLLNIYSTLSGQSIEELERQYEGKGYGVFKADLAQVVIETLRPIQERYHHWMESEELDRVLDEGAEKANRVASEMVRKMEQAMGLGRRR
B1 registered an equilibrium dissociation constant (Kd) of 5 nM.

Values taken from publication doi:10.1101/591495 (bioRxiv, 2019).
